Assay results published in article PMC4813464, “Recombinant Collagen Engineered to Bind to Discoidin Domain Receptor Functions as a Receptor Inhibitor*” (The Journal of Biological Chemistry, 2015).

What was measured:
Experiment in all cases: ELISA; solid-phase binding assay: native (triple-helical) collagens coated at 200 μg/ml in PBS on Immulon 2HB plates overnight at 4 °C; DDR-Fc at 20 μg/ml (∼220 nM) or in a series of 0-60 μg/ml (0-667 nM) in PBS, 3 h at room temperature; anti-Fc detection, A450; apparent Kd from a one-site fit
[1] = target: SCl-DDR6 (bacterial collagen with six triplets of the human collagen III DDR-binding sequence) (Streptococcus pyogenes | human)
[2] = target: SCl-DDR4 (bacterial collagen with four triplets of the human collagen III DDR-binding sequence) (Streptococcus pyogenes | human)
[3] = target: T1, Collagen type III, pepsin-extracted from bovine skin (bovine, UniProt P04258 1-1049, 4-hydroxyproline in Yaa positions (positions not listed)); details: both partners purified
T1 construct: bovine collagen alpha1(III) chain, pepsin-extracted from skin; Homotrimer of alpha1(III) chains; native triple helix unless denatured (90 °C, 30 min); also called Bovine Collage III; collagen III; source: pepsin-extracted from bovine skin (provided by Dr. John Ramshaw)
T1 sequence (looked up): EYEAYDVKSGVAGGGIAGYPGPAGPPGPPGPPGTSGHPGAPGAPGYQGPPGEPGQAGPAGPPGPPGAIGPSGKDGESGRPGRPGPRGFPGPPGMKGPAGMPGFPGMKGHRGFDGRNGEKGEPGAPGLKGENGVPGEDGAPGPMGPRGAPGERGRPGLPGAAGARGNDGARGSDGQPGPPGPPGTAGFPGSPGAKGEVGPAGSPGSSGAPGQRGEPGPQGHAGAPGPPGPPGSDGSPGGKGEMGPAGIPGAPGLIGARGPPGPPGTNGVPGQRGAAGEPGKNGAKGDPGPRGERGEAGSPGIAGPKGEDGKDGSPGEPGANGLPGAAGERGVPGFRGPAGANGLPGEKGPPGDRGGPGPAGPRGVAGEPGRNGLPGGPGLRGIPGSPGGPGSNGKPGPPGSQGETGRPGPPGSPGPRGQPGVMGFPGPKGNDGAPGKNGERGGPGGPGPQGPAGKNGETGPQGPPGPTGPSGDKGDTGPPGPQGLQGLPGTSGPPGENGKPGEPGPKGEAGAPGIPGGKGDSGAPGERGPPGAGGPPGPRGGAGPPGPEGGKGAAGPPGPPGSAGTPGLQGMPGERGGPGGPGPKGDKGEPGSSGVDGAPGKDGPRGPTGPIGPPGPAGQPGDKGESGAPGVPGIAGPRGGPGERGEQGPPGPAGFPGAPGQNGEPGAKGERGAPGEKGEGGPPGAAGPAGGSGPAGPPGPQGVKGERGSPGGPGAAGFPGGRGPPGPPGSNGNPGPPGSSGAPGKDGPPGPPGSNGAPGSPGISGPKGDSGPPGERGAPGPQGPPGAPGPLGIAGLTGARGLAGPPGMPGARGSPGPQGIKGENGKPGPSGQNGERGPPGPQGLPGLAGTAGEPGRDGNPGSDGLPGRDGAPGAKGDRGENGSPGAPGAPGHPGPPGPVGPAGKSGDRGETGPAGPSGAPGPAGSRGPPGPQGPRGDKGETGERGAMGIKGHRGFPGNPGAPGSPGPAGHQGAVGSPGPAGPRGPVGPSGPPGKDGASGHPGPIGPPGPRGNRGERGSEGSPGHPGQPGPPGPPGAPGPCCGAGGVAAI

DDR1-Fc (recombinant human discoidin domain receptor 1 ectodomain, Fc-tagged) (from UniProt Q08345 21-417) (Fc fusion)
Kd [1]: 66 nM
Kd [2]: 53.3 nM

B1: DDR1-Fc (recombinant human discoidin domain receptor 1 ectodomain, Fc-tagged) (Fc fusion, UniProt Q08345 21-417, looked up)
chain: DMKGHFDPAKCRYALGMQDRTIPDSDISASSSWSDSTAARHSRLESSDGDGAWCPAGSVFPKEEEYLQVDLQRLHLVALVGTQGRHAGGLGKEFSRSYRLRYSRDGRRWMGWKDRWGQEVISGNEDPEGVVLKDLGPPMVARLVRFYPRADRVMSVCLRVELYGCLWRDGLLSYTAPVGQTMYLSEAVYLNDSTYDGHTVGGLQYGGLGQLADGVVGLDDFRKSQELRVWPGYDYVGWSNHSFSSGYVEMEFEFDRLRAFQAMQVHCNNMHTLGARLPGGVECRFRRGPAMAWEGEPMRHNLGGNLGDPRARAVSVPLGGRVARFLQCRFLFAGPWLLFSEISFISDVVNNSSPALGGTFPPAPWWPPGPPPTNFSSLELEPRGQQPVAKAEGSPTA
notes: human discoidin domain receptor 1, ectodomain; IgG1 Fc, R&D Systems) stood in which experiment; In the functional rows the receptor was full-length DDR1a in HEK293 cells or endogenous DDR1 on human megakaryocytes; also called DDR1 ectodomain; source: HEK293-EBNA, episomally transfected, purified (rProtein A) (IgG2 Fc); for some experiments bought: R&D Systems (IgG1 Fc)
Kd [3]: 15.2 ± 0.9 nM

B2: DDR2-Fc (recombinant human discoidin domain receptor 2 ectodomain, Fc-tagged) (Fc fusion, UniProt Q16832 22-399, looked up)
chain: KAQVNPAICRYPLGMSGGQIPDEDITASSQWSESTAAKYGRLDSEEGDGAWCPEIPVEPDDLKEFLQIDLHTLHFITLVGTQGRHAGGHGIEFAPMYKINYSRDGTRWISWRNRHGKQVLDGNSNPYDIFLKDLEPPIVARFVRFIPVTDHSMNVCMRVELYGCVWLDGLVSYNAPAGQQFVLPGGSIIYLNDSVYDGAVGYSMTEGLGQLTDGVSGLDDFTQTHEYHVWPGYDYVGWRNESATNGYIEIMFEFDRIRNFTTMKVHCNNMFAKGVKIFKEVQCYFRSEASEWEPNAISFPLVLDDVNPSARFVTVPLHHRMASAIKCQYHFADTWMMFSEITFQSDAAMYNNSEALPTSPMAPTTYDPMLKVDDSNTR
notes: human discoidin domain receptor 2, ectodomain; In the functional rows the receptor was full-length DDR2 in HEK293 cells; also called DDR2 ectodomain; source: HEK293-EBNA, episomally transfected, purified (rProtein A)
Kd [3]: 20 ± 1.9 nM
Kd [1]: 69.7 nM
Kd [2]: 81.2 nM
